Experimental data from patent US20180037651A1 (Janssen / Centocor, published 2018).

Target: T1, human GPRC5D (human, UniProt Q9NZD1 1-345)
T1 construct: on transfected HEK293/RBL cells or endogenous on myeloma cells (H929, MM1R, OPM2, LP1, JIM3, patient plasma cells); also called G protein-coupled receptor class C group 5 member D; hGPRC5D
Assay: FACS, GPRC5D+ MM1.R cells
Protocol: The binding affinities of the GPRC5D antibodies on GPRC5D⁺ human MM cell line (MM1.R, purchased from ATCC (American Type Culture Collection)) were measured using FACS.
Binding is expressed as normalized geometrical mean fluorescence intensity as determined by FACS. Graphing and fitting of data were done in GraphPad Prism 6 using nonlinear regression with variable slope (four parameters) and least square fit method.

T1 sequence (Q9NZD1 whole entry): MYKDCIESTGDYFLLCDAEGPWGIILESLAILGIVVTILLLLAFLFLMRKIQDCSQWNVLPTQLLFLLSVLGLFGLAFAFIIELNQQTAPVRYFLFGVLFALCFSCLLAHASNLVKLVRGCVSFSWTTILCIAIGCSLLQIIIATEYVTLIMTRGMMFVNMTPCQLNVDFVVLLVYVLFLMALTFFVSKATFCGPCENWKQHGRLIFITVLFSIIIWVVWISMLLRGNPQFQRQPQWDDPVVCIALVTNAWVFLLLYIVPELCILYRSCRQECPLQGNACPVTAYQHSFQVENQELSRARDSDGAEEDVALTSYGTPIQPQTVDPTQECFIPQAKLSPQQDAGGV

EC50: 135 nM
B1: GC5B602 (antibody, IgG1, V domains shown)
VH: QVQLVQSGAEVKKPGASVKVSCKASGYSFTGYTMNWVRQAPGQGLEWMGLINPYNGDTNYAQKLQGRVTMTTDTSTSTAYMELRSLRSDDTAVYYCARVALRVALDYWGQGTLVTVSS
VL: DIQMTQSPSSLSASVGDRVTITCKASQNVATHVGWYQQKPGKAPKRLIYSASYRYSGVPSRFSGSGSGTEFTLTISNLQPEDFATYYCQQYNRYPYTFGQGTKLEIK
notes: IgG1 form of GC5B515
